These results are taken from paper PMC4833211.

One may read the stoichiometry N as the number of molecules, sites or subunits per partner or assembly.

This assay deals with KirBac1.1 WT. Description: SEC. On the technique in general: Size exclusion chromatography separates by hydrodynamic size, large species first.

Consider KirBac1.1 WT (natural protein), for which the stoichiometry N was 4.
